Source: the supplement of paper PMC10567573

B1: FBF1 (parent)
chain: YQRPQDSEDMWGDEDFTFGAYQPT

Variants of: B1
Assay: protein stability index of a GFP-peptide fusion (GPS, HEK-293T) (PSI 1-6); higher = more stable
Details: c terminus: a fixed tail appended
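Note: lentivirally expressed fusions sorted by FACS into six bins by GFP to DsRed ratio, PSI derived from sequencing read proportions per bin multiplied by bin number.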

Protein stability index: each site, then its substitutions
Y1: A 4.84, C 3.54, D 4.87, E 4.84, F 2.58, G 4.79, H 4.76, I 3.95, K 4.24, L 3.87, M 4.6, N 4.62, P 4.71, Q 4.23, R 3.94, S 4.52, T 4.66, V 3.92, W 3.93
Q2: A 2.79, C 2.7, D 4.81, E 4.26, F 3.25, G 3.76, H 2.21, I 2.08, K 3.81, L 3.45, M 3.56, N 3.14, P 3.05, R 3.83, S 3.53, T 3.54, V 1.78, W 2.38, Y 3.65
R3: A 3.44, C 3.12, D 4.36, E 4.79, F 3.12, G 3.4, H 3.49, I 2.87, K 3.64, L 3.46, M 3.2, N 3.71, P 3.87, Q 4.01, S 3.11, T 2.62, V 3.5, W 2.82, Y 3.09
P4: A 2.45, C 2.7, D 3.39, E 3.56, F 2.54, G 2.69, H 2.97, I 2.68, K 2.29, L 2.74, M 2.74, N 2.26, Q 2.54, R 2.26, S 2.54, T 2.57, V 2.49, W 2.09, Y 3.04
Q5: A 2.49, C 2.26, D 3.79, E 3.76, F 2.64, G 2.99, H 2.44, I 2.26, K 2.01, L 2.09, M 2.44, N 3.03, P 2.52, R 2.16, S 2.98, T 3.18, V 2.56, W 2.03, Y 2.57
D6: A 2.05, C 2.06, E 2.59, F 1.68, G 1.77, H 1.84, I 1.98, K 1.94, L 2.17, M 2.32, N 2.25, P 2.3, Q 2.26, R 2.04, S 2.24, T 2.53, V 2.12, W 1.64, Y 2.06
S7: A 2.68, C 2.34, D 3.68, E 3.29, F 2.41, G 2.47, H 2.58, I 2.99, K 3.01, L 2.87, M 2.37, N 3.2, P 3.13, Q 2.9, R 2.71, T 2.35, V 2.82, W 1.73, Y 1.74
E8: A 1.9, C 1.99, D 2.47, F 2.13, G 1.98, H 2.01, I 1.95, K 1.78, L 2.1, M 2.42, N 2, P 1.65, Q 1.81, R 1.58, S 2.32, T 2.29, V 1.7, W 1.58, Y 2.31
D9: A 2.17, C 1.55, E 3.21, F 1.92, G 2.47, H 2.03, I 2.13, K 2.01, L 1.44, M 1.55, N 2.48, P 2.02, Q 2.23, R 2.34, S 2.11
